Data as given in the DeepSol protein solubility set.

Assay: soluble on expression in E. coli; label from the status in PepcDB or PDB records
In the case of “MAHHHHHHMRRTLALYKQGRSREPNVGRLLYGKRKNLVHHASEAKPSVTAVLAQTPTERLPVAVKHALQVKELHREQIATLLKQHRALRRFDRTEVIVQALRDAKQPLTSQHYCVLMAHANDERQTRRALQFWKDAVSEGKVNERLHGALMSTYRNAGNWRAAMRHCERMWRDQQVLDPLAAHAVMNACRRYGPWQMGLKVFSDAVQHGTKPNGVVYLELLRLIAQSKMPARWMYGLAILRALEASVEVTAGHYNAVLATMGGRNWEKGIELFHSMQVHNVQPSTETLNTVQQLHPHSVSHCIRCVAEAHALGMPITDTMYRNVLLNLFRMQLNNEATQFAEREYKLDCVDAGNPLTHTLSLSVAMVDALLSHPRPHDALLVYESFQDKIGDVVAAATRQLGTSGSLEQRWLVQGRVAVVDHNVLLSTTFESLIHHYDSVFVPFASVRLLVRRARENGHSVQGLHMKTTLRRIGLLLKREEWRMLRVLPYAHQLLAHTYLSEGGPASPEALKALREEAETQSLLPESPQTPTAVAKAVSAYGQALLRRLTPVGEAAEVAGAVRADQSGERGTEDAAKNLVIREAAGGAADTGASSLVSSKAWPAATAPFPMVLHSPRRITSVERVTAVAAMLKSLNPDAEVHVLSTNASQLAAVRHWNAVRVGVLLVPVHYPDQLRQMAPPALPISEGAVAAAMAAPGFRGPKPRL”, the “soluble on expression in E. coli” value is reported as “not soluble”.
With “MADKSTEVEKAIDPIIDLGNLLFIDREPIQGDASEGLEERARKNTQLLFNNIWQLEQKRVEEAIIVTLPPATYRLPREKRLPEKKEPTKWEKYAAEKGIEKRKKDKKVFDEATKEWKPTYGYRRGNDDTKDWLIEIPDNAEDPNKDFFAERREKKKERVAKNDMQRMKNLARQMKTTVKSGPSTEKMIGVGVDAKEKSKQQVRFAVDRAKLATASAGKFQEGLKGEKANVKTGKKRKFEANEAPVSGEKERALQILQRMKSKKAKIVEEKAAAVAGPLREKKEKSERKGAKDQTRQKSQIHRQQWFKNKVDGKKKGTGGAGKKGANKAKARKG” the “soluble on expression in E. coli” value was “not soluble”.
In the case of “MIHYKIAPSPLDHEWHILLKFTQDNDFPIEISLPNWVPGSYLIRDFSRHITSIHASCNGTSMPLEQIAKNRWHTAAVRGEWQIRYTVYAFDLSVRGSFLTTERGFFDGSCLFLKVEGTETLPHRLELTGIPPEWRIATTLPETGRLVFQTASYDELIDRPVEMGLIEFLDFEAAGIPHTIALNGIYPDFDRDRLVSDIKKICETELAMFSSPAPFEKYLFLLHVGDHIYGGLEHTDSTALLADRHSLPPYGMTDADDAYTTLLGLFSHEYFHAWNVKSIKPAAFAPYDLDKENYTEQLWAFEGITSYYDDLFLARSRTISPEFYLNLLAQGITRVQQTRGRLRQTLAESSFTAWNKFYKPDENSPNAIVSYYQKGALAALCLDLIIRNRSNGRHSLDTVMDKLYREWRDTHSGIPEKHWQIRCQEITGLDLTDFFQTALYSTEDLPLAECLATTGVKLTFLPLPRQHGGGYAEHIFPIPPTGDFGARFKQNADHIVLTHVFNGGSAESAALCPQDKIIALDGYACTDFAAQWARYHVRAKINIHFFRAGILRQTVLTVQATAADTAILHITDRNLLENWLFGLEHHHHHH”, the “soluble on expression in E. coli” value is reported as “not soluble”.
With “MKYIIIGLGNYGHVLAEELSALGHEIIGADISESRVDSIKDKVATAFVIDATDEQSLSVLPLNSVDIVVVAIGENFGASVRVVALLKQKKVPRIFARAIDAVHKAVLEAFSLEKILTPEEDAARSLVQLLDFGATMEAFRIDQDYYVVKFTVPKKFVGYFVNELNMDEEFHLKLIALKRANKVTNCLGISLMERHVKNELPGDEKVEEGDELVCYGKYRDFQSFWKAILEHHHHHH” the “soluble on expression in E. coli” value was “soluble”.
With “METEEWFFKGISRKDAERQLLAPGNMLGSFMIRDSETTKGSYSLSVRDYDPRQGDTVKHYKIRTLDNGGFYISPRSTFSTLQELVDHYKKGNDGLCQKLSVPCMSSK” the “soluble on expression in E. coli” value was “soluble”.
With “MSAQASRQKKSDQEQRAADQALLNAAIEDNAMEQDENFTVIDKLESSGISSGDISKLKEAGYYTYESLAFTTRRELRNVKGISDQKAEKIMKEAMKFVQMGFTTGAEVHVKRSQLVQIRTGSASLDRLLGGGIETGSITEVYGEYRTGKTQLCHSLAVLCQLPIDMGGGEGKCMYIDTNATFRPERIIAIAQRYNMDSAHVLENIAVARAYNSEHLMALIIRAGAMMSESRYAVVIVDCATAHFRNEYTGRGDLAERQMKLSAFLKCLAKLADEYGVAVIITNQVVAQVDGGASMFQADAKKPIGGHIIAHMSTTRLYLRKGKGENRVAKMVQSPNLPEAEATYSITNHGIEDARED” the “soluble on expression in E. coli” value was “not soluble”.
For “MGSDKIHHHHHHMPYNATVLRIMIASPSDVAKERNIIRNIIYEWNTINSIDRKIVLDPVGWETHAHPDMSGRAQSIINKQILKDCDLLVAVFWTRLGTPTGKFISGTVEEIEEHLKSGKQAMIYFSRAPVYLESVDQDQYKALCDFRSLCQQKGLIETYESLEEFQHKFSRQISQKIIQNYSSLESTNNTLEVSFAPELPRLSDLGKDLLIEVASDSNGELICLPVMGGLMIETNNKQLADMGNARSEASWKSAISELIKYELMESLGGKGEVYRLTEKGYQVADHLGAP”, the “soluble on expression in E. coli” value was “not soluble”.
With “THANIQGLVKHVDYMAFSDQDTFLSVSNYAFDAFTFDFYASMLNAARLIIADEHTLLDTERLTDLILQENVNVMFATTALFNLLTDAGEDWMKGLRCILFGGERASVPHVRKALRIMGPGKLINCYGPTEGTVFATAHVVHDLPDSISSLPIGKPISN” the “soluble on expression in E. coli” value was “not soluble”.
With “MGSDKIHHHHHHAQVNDTIQRTTGNDLYQGITRKLPYWQMVTPHGVQVTFAKTVHIIFPSAVRYVDLGSNWIIAGKADGAENVIRVKAATEGFPGETNFSVICEDGSFYSFNARYAHEPEMLNIEMKDFLENGDTTDFSHTRMNIHFRELAGESPLLVKLIMQSIYKEDRREIRHLGCKRFGVQFLLKSVHSHNGLFYFHTETRNRSNVAFRTDFIRFKIVDKKVPKRTAIQERVIDPVRSYNEVLVTEGKSDVRTVYAVPQFTIPDDKLLVIELFEKDGGRHQTIRVENADLVAARQINELKIK” the “soluble on expression in E. coli” value was “not soluble”.
In the case of “MAYVPTLIANNVLNRAFAEKYRISPMKLQKILYFAAAEYQKNTGKSLFSERFETWQYGPVLRSVYSEFRPFSRDFITRFAKDAENQSHMINESADPALQRVLDTVWSATKGHSAVDLSRITHMENSAWDKSFQNEQPFLSSDHIAADDTYRRELGLTTA”, the “soluble on expression in E. coli” value is reported as “not soluble”.
In the case of “MPIRFLHTADLHLDSPLRTFGDLARERRRDFLKTFDRIVNLAIKREVDCILIAGDLFDSTSVGAETVGRVQDAFSRLAGRGVQVVLIPGTHDNIISAESVYSRYQFTGVHILREPAVDEPLRLDIRGEAVFFYGFAYRSDRSREALESMRRRSGDGIHVGLLHGSLKGNPEWEMRKKDIPFSVADLVALDLDYIALGHYHDAACLEEGGRVIACYPGSPEGKKFGENGPRYALIVEVAPGNASVERVEVQTRIIREFNVDASLFAEPAALEAELARLGTSDTVGRIRLCGTVEEPLDTANLSGRVKGNFAWLELVDETDLYNSGHVKRMEREDSIRGLFIRKIHERYDAAGSDAERELCRDALRLVMGRFSRGGGN”, the “soluble on expression in E. coli” value is reported as “not soluble”.
In the case of “TELKPLLIELGTEELPVNALPNLSRAFFEGVLAGLERRGIVVDHGEAKSLSTPRRLAVLLTAVAVEQPKQYRELFGPYLNTAFDTEGKPTKALEGFAAKCGVNWRTLERIRDTKGERFVHRVVVPGERTDALLPGILTEAIAGMPIPKPMRWGAHEYLFARPVHWLVMLFGQDVVEAEIMGVKAGRISRGHRFLYDKPVSLSGPQNYIDVLQAAYVLVDPAARRARIVAEIEAVARQVGGVARITEDNVAQVVNLVEWPSAVLCSFERVFLEVPQEALIQTMEVNQKFFPVLDSLGKLTEKFIGIANIESNDVAEVAKGYERVIRPRFSDAKFFFNEDLKQGLKAMGERLRTVTYHAKLGTLADKVARVLVLAEAIAPQIGVDPLLARRVALLSKNDLQSRMVNEFPELQGVAGHHYALISGELPEVAMAIEDAYRPRFSGDEIARSPLGKVLGLAERLDTLACGFAVGMKPTGNKDPFGLRRNALGLARTIIESRFDLDLKVLLDQASDWVAFATTIEQERHAQESVKQSKKEAAVKHSVPQVSDEKSARIEELYDFIVERLRGYYADKGIPTTHFNAVAELKPVS”, the “soluble on expression in E. coli” value is reported as “not soluble”.
In the case of “MMKPPSAIMETALYADDLDAAEAFYRDVFGLEMVLKLPGQLVFFKCGRQMLLLFDPQESSRADANNPIPRHGAVGQGHFCFYADDKAEVDEWKTRFEALEIPVEHYHRWPNGSYSVYIRDPAGNSVEVGEGKLWGFE”, the “soluble on expression in E. coli” value is reported as “not soluble”.
In the case of “MGSDKIHHHHHHMLVKKISPRGYCYGVVDAMKLAQQAALNDNLPRPIHILGMIVHNAHVTREFERMGVLTVDGPDRLEALETIKEGTVIFTAHGISPAVYARAAEKKLTVVDATCPDVTRTHDLIRSVVADDYEVIYVGKHGHPEPEGAVGVAPEHVHLIEKVEDIEALPAHLADKKIIVTNQTTMSQWDVQALMEHVRKKYPHVEVHNEICNATQVRQEAVAEQAGDCDLVIVVGDPRSNNSNRLAQVSFDIAATPAHRIGDLTELDLSWLDGVNQVGVTSGASTPTPITKKVIDFLQQYDPADISTHDKTPFLELRRILPKVKIL”, the “soluble on expression in E. coli” value is reported as “not soluble”.
In the case of “MESGSWRPPFSTGKIVGNYGLLKLYLEVAREKGRRDLVDKALISEDDVDMLRRLSASPGATAEDFVNALEERFVERVDPEVASEALARAGINVDGDTARRMIARILAGWLVEMGEEMKLYRLRRSWED”, the “soluble on expression in E. coli” value is reported as “soluble”.
For “MGIKTQKNFICLKRTFSMNLRDAISVANPVQLEEEIKHDEVVSFLKSKNLLDKPVILNVEGKKVAKNFVSSRETLGKYLGVDAYSIARELSKIEDREAEIRVEPFSSLAMKKVDVNLQELPVIKYFPRDGGRYITAGIVIAQRNGVYNASIHRMLLLDESRVAARLVPPRHTYLMWREAVEREEELEVAVVIGTHPLFLFASATRVPSGKEFSYAAGLMGRLTLYRKGEMLVPDSEIILFGRITAETAKEGPFVDITGTYDIVRDEPVIVFDEMYVKEDYIYYSITPAGKEHQMLMGVPYEPVIYRFVSNVCKVKNVITTPGSCHYFHCVVQIEKKSEGDGKNAIIAALAANPSMKGVVVVDDDIDILSYEDMEFAIATRFQPDRDLVVVKGARGSSLDPSADKTTSKWGIDATKPLGKEGFDRVVLEHHHHHH”, the “soluble on expression in E. coli” value was “not soluble”.
For “MKGNALCTGEPVMTIETRGGGSEDIAVLPLDPTGNITRLFIRERCNDSSDPECKTGQWRLGSVDISRENTPASTRYAWRPGNNASEDDFEPLGMSLVPGNTPGEGTLFVIDIARPQSVRIWQLDISGGEITKATLATPADTQTGARLTAANSLQAVRNDDSRSFHLTITRFDEYGLLPFRPTPWPALVRINNGVIQPPPAQDFRNANGIIRPCAGCDLVIASYWERRLRFVSKENGEIGEYASAELPIRPDNLRLDGERILIAGQRRVDLTALNLLVSPHIPSPSGVYAIDTRSLGPDTVPTLLWEGGWKHGHSVATAVALPGNRLAIGQINTPGILIADCSPLEHHHHHH”, the “soluble on expression in E. coli” value was “not soluble”.
With “MEPKRIREGYLVKKGSVFNTWKPMWVVLLEDGIEFYKKKSDNSPKGMIPLKGSTLTSPCQDFGKRMFVLKITTTKQQDHFFQAAFLEERDAWVRDIKKAIKCIEGGQKFARKSTRRSIRLPETIDLGALYLSMKDPEKGIKELNLEKDKKVFNHCLTGSGVIDWLVSNKLVRNRQEGLMISASLLSEGYLQPAGDLSKNAADGIAENPFLDSPDAFYYFPDSGFFCEENSSDDDVILREEFRGVIIKQGCLLKQGTGENWKVRKFILREDPAYLHYYDPAGGEDPLGAVHLRGCVVTSVESSHDVKKSDEENLFEIITADEVHYYLQAATSKGRTEWIKAIQVASRTGK” the “soluble on expression in E. coli” value was “soluble”.
With “GSEVYKKAPPYPEQVVSASGKVLMTKDDILAGQSAWQTTGGMEVGSILGHGAYQAPDWTADWLHRELVAWLDLTAQQTYGKKFDEVSPEEQAVLKTRLADEYRNQSRVKEDGSVVISDTRVKAIESILPYYHGVYSDDPKFQTTREHFAMKNNTLPSQEAREKLFNFFFWTSWSASTNRPDENFTYTNNWPHEPLINNVPTTEN” the “soluble on expression in E. coli” value was “not soluble”.
